From paper PMC9995517 (2023)

Target: F-actin (preassembled filaments of rabbit skeletal muscle actin) (rabbit, UniProt P68135 1-377)

| Kd [nM] | Binder |
| --- | --- |
| 800 | tyrosyl-tRNA synthetase E196K (CMT-causing mutant), recombinant Xpress-6xHis tagged (His-YARS1^E196K) (enzyme) MGDAPSPEEKLHLITRNLQEVLGEEKLKEILKERELKIYWGTATTGKPHVAYFVPMSKIADFLKAGCEVTILFADLHAYLDNMKAPWELLELRVSYYENVIKAMLESIGVPLEKLKFIKGTDYQLSKEYTLDVYRLSSVVTQHDSKKAGAEVVKQVEHPLLSGLLYPGLQALDEEYLKVDAQFGGIDQRKIFTFAKKYLPALGYSKRVHLMNPMVPGLTGSKMSSSEEESKIDLLDRKEDVKKKLKKAFCEPGNVENNGVLSFIKHVLFPLKSEFVILRDEKWGGNKTYTAYVDLEKDFAAEVVHPGDLKNSVEVALNKLLDPIREKFNTPALKKLASAAYPDPSKQKPMAKGPAKNSEPEEVIPSRLDIRVGKIITVEKHPDADSLYVEKIDVGEAEPRTVVSGLVQFVPKEELQDRLVVVLCNLKPQKMRGVESQGMLLCASIEGINRQVEPLDPPAGSAPGEHVFVKGYEKGQPDEELKPKKKVFEKLQADFKISEECIAQWKQTNFMTKLGSISCKSLKGGNIS |
| 750 | tyrosyl-tRNA synthetase, wild type, recombinant Xpress-6xHis tagged (His-YARS1^WT) (enzyme) MGDAPSPEEKLHLITRNLQEVLGEEKLKEILKERELKIYWGTATTGKPHVAYFVPMSKIADFLKAGCEVTILFADLHAYLDNMKAPWELLELRVSYYENVIKAMLESIGVPLEKLKFIKGTDYQLSKEYTLDVYRLSSVVTQHDSKKAGAEVVKQVEHPLLSGLLYPGLQALDEEYLKVDAQFGGIDQRKIFTFAEKYLPALGYSKRVHLMNPMVPGLTGSKMSSSEEESKIDLLDRKEDVKKKLKKAFCEPGNVENNGVLSFIKHVLFPLKSEFVILRDEKWGGNKTYTAYVDLEKDFAAEVVHPGDLKNSVEVALNKLLDPIREKFNTPALKKLASAAYPDPSKQKPMAKGPAKNSEPEEVIPSRLDIRVGKIITVEKHPDADSLYVEKIDVGEAEPRTVVSGLVQFVPKEELQDRLVVVLCNLKPQKMRGVESQGMLLCASIEGINRQVEPLDPPAGSAPGEHVFVKGYEKGQPDEELKPKKKVFEKLQADFKISEECIAQWKQTNFMTKLGSISCKSLKGGNIS |
